Publication PMC11940275

Each sequence was assayed against SARS-CoV-2 spike protein, Omicron BA.2 (on SmBiT-BA.2 pseudovirus) (SARS-CoV-2 Omicron BA.2) (UniProt P0DTC2).

Point of comparison: “CGCAGCACCCAAGAACAAGGACTGCTTAGGATTGCGATAGGTTCGG [46-mer aptamer]”, IC50 700 nM. Against it:
- ATCCAGAGTGACGCAGCATCGAGTGGCTTGTTTGTAATGTAGGGTTCCGGTCGTGGGTTGGACACGGTGGCTTAGT [76-mer aptamer] — 5.2-fold higher, 3610 nM
- ATCCAGAGTGACGCAGCATTTCATCGGGTCCAAAAGGGGCTGCTCGGGATTGCGGATATGGACACGT [67-mer aptamer] — 2.3-fold higher, 1640 nM
